From patent EP1881070A2

Columns and labels:
[1] = biological target: human zalpha11 receptor (human) (UniProt Q9HBE5); test: 125I-ligand competition on BaF3/zalpha11 cells, relative to non-specific competitor Interferon Gamma
[2] = biological target: human zalpha11 receptor (human) (UniProt Q9HBE5); test: 125I-ligand competition on Raji cells, relative to no competitor
[3] = biological target: human zalpha11 receptor (human) (UniProt Q9HBE5); test: 125I-ligand competition on BaF3/zalpha11 cells, relative to no competitor
[4] = biological target: human zalpha11 receptor (human) (UniProt Q9HBE5); test: 125I-ligand competition on Raji cells, relative to non-specific competitor Interferon Gamma
[5] = biological target: human zalpha11 receptor (human) (UniProt Q9HBE5); test: cell-based or functional assay

human zalpha11 receptor (human), sequence (Q9HBE5 20-538 limits assumed): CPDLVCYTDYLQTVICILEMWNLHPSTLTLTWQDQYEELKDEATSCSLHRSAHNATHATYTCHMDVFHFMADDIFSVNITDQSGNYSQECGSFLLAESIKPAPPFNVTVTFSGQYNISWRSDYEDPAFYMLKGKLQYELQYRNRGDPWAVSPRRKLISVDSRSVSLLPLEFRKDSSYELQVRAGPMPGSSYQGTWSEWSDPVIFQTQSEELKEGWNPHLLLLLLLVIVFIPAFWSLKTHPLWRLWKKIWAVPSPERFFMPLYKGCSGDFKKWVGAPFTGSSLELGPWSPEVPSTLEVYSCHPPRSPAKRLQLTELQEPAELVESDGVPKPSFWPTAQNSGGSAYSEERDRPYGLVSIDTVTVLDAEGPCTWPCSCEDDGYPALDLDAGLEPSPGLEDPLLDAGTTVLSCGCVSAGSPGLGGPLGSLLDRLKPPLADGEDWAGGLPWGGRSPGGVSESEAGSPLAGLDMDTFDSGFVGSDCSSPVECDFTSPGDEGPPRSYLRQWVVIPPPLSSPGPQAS
human zalpha11 Ligand-saporin immunotoxin conjugate, sequence (Q9HBE4 32-162): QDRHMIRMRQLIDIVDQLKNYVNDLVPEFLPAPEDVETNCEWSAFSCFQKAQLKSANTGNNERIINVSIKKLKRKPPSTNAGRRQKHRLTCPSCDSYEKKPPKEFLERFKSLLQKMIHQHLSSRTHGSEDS

Row | Substance | fold decrease in binding of 125I-labeled ligand at 250 fold molar excess [1] | fold decrease in binding of 125I-labeled ligand at 250 fold molar excess [2] | fold decrease in binding of 125I-labeled ligand at 250 fold molar excess [3] | fold decrease in binding of 125I-labeled ligand at 250 fold molar excess [4] | growth inhibition of IM-9 cells at the maximal conjugate concentration (250 ng/ml), Alamar Blue [5] | growth inhibition of RAMOS cells at the maximal conjugate concentration (250 ng/ml), Alamar Blue [5]
1 | purified CHO recombinant human zalpha11 Ligand (huzalpha11L-CHO) (from UniProt Q9HBE4 32-162) | 2 fold | 3.7 fold | 3.06 fold | 3 fold |  | 
2 | human zalpha11 Ligand-saporin immunotoxin conjugate |  |  |  |  | 79% | 65%
